From publication PMC3853416, “Structural and functional characterisation of the methionine adenosyltransferase from Thermococcus kodakarensis” (BMC Structural Biology, 2013)

Key:
[1] = substrate: CSCC[C@H](N)C(=O)O; assay: HPLC (SCX column) detection of SAM formed; assay type: biochemical, Thermococcus kodakarensis; settings: co-substrate ATP (10 mM in standard assay), 0.1 M Tris-HCl, 0.02 M MgCl2, 0.2 M KCl, pH 8.0, 37 °C
Text: (§1) HPLC (SCX column) detection of SAM formed on TkMAT

[2] = substrate: Nc1ncnc2c1ncn2[C@@H]1O[C@H](COP(=O)(O)OP(=O)(O)OP(=O)(O)O)[C@@H](O)[C@H]1O; assay: HPLC (SCX column) detection of SAM formed; assay type: biochemical, Thermococcus kodakarensis; settings: co-substrate L-methionine (10 mM in standard assay), 0.1 M Tris-HCl, 0.02 M MgCl2, 0.2 M KCl, pH 8.0, 37 °C
Text: as §1

[3] = molecular target: the molecule itself; assay: SEC; Superdex 200 prep grade, XK 16/70 column; 2 mL of 5 mg/mL protein; 40 mM Tris-HCl, 150 mM NaCl, pH 8.0; 1 mL/min; column calibrated with proteins of known size

B1: methionine adenosyltransferase from Thermococcus kodakarensis (enzyme, UniProt Q5JF22 1-405, looked up)
chain: MAGKVRNIVVEELVRTPVEMQKVELVERKGIGHPDSIADGIAEAVSRALSREYVKRYGIILHHNTDQVEVVGGRAYPQFGGGEVIKPIYILLSGRAVEMVDREFFPVHEIALKAAKDYLRKAVRHLDLEHHVIIDSRIGQGSVDLVGVFNKAKKNPIPLANDTSFGVGYAPLSETEKIVLETEKYLNSDEFKKKYPAVGEDIKVMGLRKGDEIDLTIAAAIVDSEVDNPDDYMAVKEAIYEAAKGIVESHTERPTNIYVNTADDPKEGIYYITVTGTSAEAGDDGSVGRGNRVNGLITPNRHMSMEAAAGKNPVSHVGKIYNILSMLIANDIAEQVEGVEEVYVRILSQIGKPIDEPLVASVQIIPKKGYSIDVLQKPAYEIADEWLANITKIQKMILEDKVNVF
notes: methionine adenosyltransferase (S-adenosylmethionine synthase) of Thermococcus kodakarensis, gene cloned from genomic DNA into pET28a(+); the printed gene length (1155 bp) and primers may not fit this gene; Homodimer in solution by size exclusion chromatography; No removal of the His-tag is described; also called TkMAT; MAT
[1]
  Km: 0.31 ± 0.07 mM
[2]
  Km: 6.54 ± 2.49 mM
[3]
  stoichiometry N: 2
